Laboratory results published in patent US12458703B2, “Responsive elastic polymers and methods of making and using same” (Purdue Research Foundation, priority 2016, dated 2025).

Assay: Intravital fluorescence imaging of BSA-AF release in the knee joint after intra-articular injection
Assay type: in vivo
Conditions: total radiant efficiency from knee joint, released from HA-g-PNIPAm hydrogels

For “Alexa Fluor 680 conjugated BSA: Alexa Fluor 680 conjugated BSA released from HA-g-PNIPAm hydrogels”, the “time detected in the knee joints” value was “more than 24 hours” and the “time of maximum concentration post intra-articular injection” value (n=4) was 6 to 12 h.
